B1: Translocon at the outer membrane of chloroplasts 64 (Pisum sativum (Garden pea)), Q9MUK5 (parent)
chain: MKSMASPSSQIWVILGLGLAGIYVLTRKLTQAVKEDFGAFLLKLKLLPPPPPAPPKAPHPLSSLNFAISDIFDIEGHVSTFGHPEWARTHEPASSTASAVSALVESGATCIGTTVVDELAYGISGENKHFGTPTNPAVPNRVPGGSSSGAAVAVAANFVDFSLGVDTSGGVRVPAGFCGILGFRPSHGAVSHVGIIPVSTSLDTVGWFAKDPDVLRRVGHILLQAPFVMQRNPRQIIIADDCFQHLNVPLDRTSQVVIKATEKLFGKQVLKHINFEDYISSKVSSLKACSIQKSNGVLKSSSLKLLANVMQSLQRHEFEHTHSEWMSIVKPDLHPAVSAQLHEKFEVSELEIENSKSVRSELRVAVNSLLKDEGVLVIPTVADPPPKLGGKEFLSHDYQSRALSLLSIASISGCCQVTVPLGFFDKNPVSVSLIARHGGDRFLLDTLKTMYTVLQEQADIAAPSKSSKSVVSKEQSAEISKEKGNQAYKDKQWQKAIGFYTEAIKLCGNNATYYSNRAQAYLELGSYLQAEEDCTTAISFDKKNVKAYFRRGTAREMLGYYKEAIDDFKYALVLEPTNKRAASSAERLRKLFQ

Variants of: B1
Conditions: with hs704_arath HSP70-4, Q9LHA8

Variant	effect of a mutation on the interaction
R550A	decreasing interaction

Reference: IntAct's records for PubMed 16619024
